{
  "source": "paper PMC9632566",
  "about": "(Nature Communications, 2022)",
  "target": "NA of A/California/04/2009 (A/H1N1pdm09) (Influenza A virus A/California/04/2009 …, strain)",
  "test": "ELISA",
  "conditions": "one partner purified",
  "data": [
    {"binder": "DA05A30 (antibody, V domains shown) VH: EVQLVESGAEVKKPGESLKISCQGSGYRFSSHWIVWVRQMPGKGLEWMGIIYPGDSDTRYSPSFQGQVTISTDKSNAYLQWSSLKASDTGMYYCARHPQPYGSGYYGEFDYWGQGTLVTVSS VL: DIQMTQPPSVSGAPGQRVTISCTGSSSNIGAGYDVYWYQQFPGTAPKLLIYANDNRPSGVPDRFSGSKSGTSASLVITGLQAEDEADYYCQSYDSSLSGSVVFGGGTKLTVL", "values": [
      {"measurement": "binding result", "value": "binds"}
    ]}
  ]
}
